Bridge positions count the residues as written; N and C are the ends. Square brackets hold non-standard residues; d marks the D form.
Experiments:
[1] = target: anti-β1-ECII antibodies of GST/β1-ECII-immunized antibody-positive rats (sera or isolated IgG fractions) (rat); experiment: ELISA after over-night incubation of n=6 rat sera with cyclopeptide (FIG. 27B, mean)
[2] = target: anti-β1-ECII antibodies in rat sera reacting with both the Cys/Ser and the Ser/Cys mutated cyclopeptides (type2 reaction, n=5) (rat); experiment: ELISA competition, type2 sera (n=5), linear 25AA Cys/Cys peptide as antigen
[3] = target: anti-β1-ECII antibodies in rat sera preferentially reacting with the Cys/Ser mutated cyclopeptides (type1 reaction, n=64) (rat); experiment: ELISA competition, type1 sera (n=64), linear 25AA Cys/Cys peptide as antigen
[4] = target: anti-β1-ECII antibodies of GST/β1-ECII-immunized antibody-positive rats (sera or isolated IgG fractions) (rat); experiment: ELISA competition, IgG of n=78 rats preincubated with peptide, linear 25AA Cys/Cys peptide as antigen
[5] = target: anti-β1-ECII antibodies of GST/β1-ECII-immunized antibody-positive rats (sera or isolated IgG fractions) (rat); experiment: dose-dependent ELISA competition, n=6 rat sera

B1: ECII-22AA Cys/Ser mutant (Gly-)cyclopeptide (formula IX′) (peptide)
peptide: cyclo(RAESDEARRCYNDPKCSDFVTG)
modifications: disulfide 10-16
SMILES: CC(C)[C@@H]1NC(=O)[C@H](Cc2ccccc2)NC(=O)[C@H](CC(=O)O)NC(=O)[C@H](CO)NC(=O)[C@@H]2CSSC[C@H](NC(=O)[C@H](CCCNC(=N)N)NC(=O)[C@H](CCCNC(=N)N)NC(=O)[C@H](C)NC(=O)[C@H](CCC(=O)O)NC(=O)[C@H](CC(=O)O)NC(=O)[C@H](CO)NC(=O)[C@H](CCC(=O)O)NC(=O)[C@H](C)NC(=O)[C@H](CCCNC(=N)N)NC(=O)CNC(=O)[C@H]([C@@H](C)O)NC1=O)C(=O)N[C@@H](Cc1ccc(O)cc1)C(=O)N[C@@H](CC(N)=O)C(=O)N[C@@H](CC(=O)O)C(=O)N1CCC[C@H]1C(=O)N[C@@H](CCCCN)C(=O)N2
Question: Which blocking-efficiency (% of the ELISA signals of unblocked sera) [1] does the source give for B1 here?
Answer: 74.9%

Question: What does the source list for cyclo(ARAESDEARRCYNDPKCCDFVTNRQ) (also: three Cys (11, 17, 18), disulfide pairing not defined) [3 Cys-containing β1-ECII-25AA Cys/Cys cyclopeptide]?
Answer: blocking capacity (% of blocked versus non-blocked ELISA-reactivity) [2]: 72%; blocking capacity (% of blocked versus non-blocked ELISA-reactivity) [3]: 65%; blocking-efficiency (% of the ELISA signals of unblocked sera) [1]: 73.4%; blocking capacity (% of blocked versus non-blocked ELISA-reactivity) [4]: 67%

B2: ECII-18AA Cys/Ser mutant (Gln-)cyclopeptide (formula VI) (peptide)
peptide: cyclo(ADEARRCYNDPKCSDFVQ)
modifications: disulfide 7-13
SMILES: CC(C)[C@@H]1NC(=O)[C@H](Cc2ccccc2)NC(=O)[C@H](CC(=O)O)NC(=O)[C@H](CO)NC(=O)[C@@H]2CSSC[C@H](NC(=O)[C@H](CCCNC(=N)N)NC(=O)[C@H](CCCNC(=N)N)NC(=O)[C@H](C)NC(=O)[C@H](CCC(=O)O)NC(=O)[C@H](CC(=O)O)NC(=O)[C@H](C)NC(=O)[C@H](CCC(N)=O)NC1=O)C(=O)N[C@@H](Cc1ccc(O)cc1)C(=O)N[C@@H](CC(N)=O)C(=O)N[C@@H](CC(=O)O)C(=O)N1CCC[C@H]1C(=O)N[C@@H](CCCCN)C(=O)N2
Question: B2 was tested. Which decrease in free anti-beta1-ECII antibodies (%) at 8-fold molar excess of peptide [5] did it give?
Answer: 53%

Question: What about the decrease in free anti-beta1-ECII antibodies (%) at 20-fold molar excess of peptide [5] of the same binder?
Answer: 66%

Question: And the decrease in free anti-beta1-ECII antibodies (%) at 80-fold molar excess of peptide [5]?
Answer: 85%

Question: And the blocking capacity (% of blocked versus non-blocked ELISA-reactivity) [2]?
Answer: 50%

Question: What about the blocking capacity (% of blocked versus non-blocked ELISA-reactivity) [3] of the same binder?
Answer: 68%

Question: And the blocking-efficiency (% of the ELISA signals of unblocked sera) [1]?
Answer: 60%

Question: What does the source list for ADEARRCYNDPKCSDFVQ [linear ECII-18AA Cys/Ser mutated (Gln18-)peptide]?
Answer: decrease in receptor antibody-titers (%) at 8-fold molar excess of peptide [5]: 24%; decrease in receptor antibody-titers (%) at 20-fold molar excess of peptide [5]: 35%; decrease in receptor antibody-titers (%) at 80-fold molar excess of peptide [5]: 50%

B3: β1-ECII-18AA Cys/Ser cyclopeptide mutant with D-Glu ring closure (formula VIII) (peptide)
peptide: cyclo(ADEARRCYNDPKCSDFV[dE])
modifications: disulfide 7-13
SMILES: CC(C)[C@@H]1NC(=O)[C@H](Cc2ccccc2)NC(=O)[C@H](CC(=O)O)NC(=O)[C@H](CO)NC(=O)[C@@H]2CSSC[C@H](NC(=O)[C@H](CCCNC(=N)N)NC(=O)[C@H](CCCNC(=N)N)NC(=O)[C@H](C)NC(=O)[C@H](CCC(=O)O)NC(=O)[C@H](CC(=O)O)NC(=O)[C@H](C)NC(=O)[C@@H](CCC(=O)O)NC1=O)C(=O)N[C@@H](Cc1ccc(O)cc1)C(=O)N[C@@H](CC(N)=O)C(=O)N[C@@H](CC(=O)O)C(=O)N1CCC[C@H]1C(=O)N[C@@H](CCCCN)C(=O)N2
Question: B3 was tested. Which blocking capacity (% of blocked versus non-blocked ELISA-reactivity) [2] did it give?
Answer: 47%

Question: And the blocking capacity (% of blocked versus non-blocked ELISA-reactivity) [3]?
Answer: 69%

Question: And the blocking capacity (% of blocked versus non-blocked ELISA-reactivity) [4]?
Answer: 69%

Question: How did the blocking capacity (% of blocked versus non-blocked ELISA-reactivity) [2] turn out when cyclo(ADEARRCYNDPKSCDFV[dE]) (disulfide 7-14 (inferred)) [β1-ECII-18AA Ser/Cys cyclopeptide mutant with D-Glu ring closure (formula XII)] was run?
Answer: 33%

Question: And the blocking capacity (% of blocked versus non-blocked ELISA-reactivity) [3]?
Answer: 1%

Question: What about the blocking capacity (% of blocked versus non-blocked ELISA-reactivity) [4] of the same binder?
Answer: 1%

Question: How did the blocking capacity (% of blocked versus non-blocked ELISA-reactivity) [2] turn out when cyclo(ARAESDEARRCYNDPKSCDFVTNRQ) (disulfide 11-18 (inferred)) [β1-ECII-25AA Ser/Cys mutant (Gln-)cyclopeptide (formula XI)] was run?
Answer: 37%

Question: And the blocking capacity (% of blocked versus non-blocked ELISA-reactivity) [3]?
Answer: 6%

Question: And the blocking capacity (% of blocked versus non-blocked ELISA-reactivity) [4]?
Answer: 6%

Question: How did the decrease in free anti-beta1-ECII antibodies (%) at 8-fold molar excess of peptide [5] turn out when cyclo(ADEARRCYNDPKCCDFVQ) (also: three Cys (7, 13, 14), disulfide pairing not defined) [3 Cys-containing β1-ECII-18AA Cys/Cys cyclopeptide] was run?
Answer: 46%

Question: What about the decrease in free anti-beta1-ECII antibodies (%) at 20-fold molar excess of peptide [5] of the same binder?
Answer: 56%

Question: And the decrease in free anti-beta1-ECII antibodies (%) at 80-fold molar excess of peptide [5]?
Answer: 71%

Question: What about the blocking capacity (% of blocked versus non-blocked ELISA-reactivity) [2] of the same binder?
Answer: 67%

Question: And the blocking capacity (% of blocked versus non-blocked ELISA-reactivity) [3]?
Answer: 59%

Question: What about the blocking-efficiency (% of the ELISA signals of unblocked sera) [1] of the same binder?
Answer: 66.1%

Question: And the blocking capacity (% of blocked versus non-blocked ELISA-reactivity) [4]?
Answer: 60%

Question: How did the blocking capacity (% of blocked versus non-blocked ELISA-reactivity) [2] turn out when cyclo(ADEARRCYNDPKSCDFVQ) (disulfide 7-14 (inferred)) [β1-ECII-18AA Ser/Cys mutant (Gln-)cyclopeptide (formula X)] was run?
Answer: 47%

Question: What about the blocking capacity (% of blocked versus non-blocked ELISA-reactivity) [3] of the same binder?
Answer: 1%

B4: ECII-25AA Cys/Ser mutant (Gln-)cyclopeptide (formula VII) (peptide)
peptide: cyclo(ARAESDEARRCYNDPKCSDFVTNRQ)
modifications: disulfide 11-17
SMILES: CC(C)[C@@H]1NC(=O)[C@H](Cc2ccccc2)NC(=O)[C@H](CC(=O)O)NC(=O)[C@H](CO)NC(=O)[C@@H]2CSSC[C@H](NC(=O)[C@H](CCCNC(=N)N)NC(=O)[C@H](CCCNC(=N)N)NC(=O)[C@H](C)NC(=O)[C@H](CCC(=O)O)NC(=O)[C@H](CC(=O)O)NC(=O)[C@H](CO)NC(=O)[C@H](CCC(=O)O)NC(=O)[C@H](C)NC(=O)[C@H](CCCNC(=N)N)NC(=O)[C@H](C)NC(=O)[C@H](CCC(N)=O)NC(=O)[C@H](CCCNC(=N)N)NC(=O)[C@H](CC(N)=O)NC(=O)[C@H]([C@@H](C)O)NC1=O)C(=O)N[C@@H](Cc1ccc(O)cc1)C(=O)N[C@@H](CC(N)=O)C(=O)N[C@@H](CC(=O)O)C(=O)N1CCC[C@H]1C(=O)N[C@@H](CCCCN)C(=O)N2
Question: How did the decrease in free anti-beta1-ECII antibodies (%) at 8-fold molar excess of peptide [5] turn out when B4 was run?
Answer: 30%

Question: What about the decrease in free anti-beta1-ECII antibodies (%) at 20-fold molar excess of peptide [5] of the same binder?
Answer: 49%

Question: And the decrease in free anti-beta1-ECII antibodies (%) at 80-fold molar excess of peptide [5]?
Answer: 83%

Question: And the blocking capacity (% of blocked versus non-blocked ELISA-reactivity) [2]?
Answer: 48%

Question: What about the blocking capacity (% of blocked versus non-blocked ELISA-reactivity) [3] of the same binder?
Answer: 69%

Question: Which blocking-efficiency (% of the ELISA signals of unblocked sera) [1] does the source give for cyclo(RAESDEARRCYNDPKCCDFVTG) (also: disulphide pairing among Cys10, Cys16, Cys17 not defined) [cyc22AA Cys/Cys, 3 cysteine-containing cyclic β1-ECII 22AA peptide with a Gly closure site] here?
Answer: 82%

Question: How did the decrease in receptor antibody-titers (%) at 8-fold molar excess of peptide [5] turn out when ARAESDEARRCYNDPKCCDFVTNRQ [linear non-mutated 3 Cys-containing ECII-25AA Cys/Cys (Gln25) peptide] was run?
Answer: 24%

Question: What about the decrease in receptor antibody-titers (%) at 20-fold molar excess of peptide [5] of the same binder?
Answer: 35%

Question: And the decrease in receptor antibody-titers (%) at 80-fold molar excess of peptide [5]?
Answer: 50%

Question: And the blocking capacity (% of blocked versus non-blocked ELISA-reactivity) [4]?
Answer: 55%

Source: US20150038673A1
